What all share (experiment): Kinase Profiling Assay
Holding throughout (type): biochemical
Holding throughout (settings): 100 μM

In one test the target is CDK6/cyclinD3(h) (Homo sapiens, UniProt Q00534).
In another test the target is T1, EphA1(h) (Homo sapiens, UniProt P21709).
T1 sequence (P21709 26-976): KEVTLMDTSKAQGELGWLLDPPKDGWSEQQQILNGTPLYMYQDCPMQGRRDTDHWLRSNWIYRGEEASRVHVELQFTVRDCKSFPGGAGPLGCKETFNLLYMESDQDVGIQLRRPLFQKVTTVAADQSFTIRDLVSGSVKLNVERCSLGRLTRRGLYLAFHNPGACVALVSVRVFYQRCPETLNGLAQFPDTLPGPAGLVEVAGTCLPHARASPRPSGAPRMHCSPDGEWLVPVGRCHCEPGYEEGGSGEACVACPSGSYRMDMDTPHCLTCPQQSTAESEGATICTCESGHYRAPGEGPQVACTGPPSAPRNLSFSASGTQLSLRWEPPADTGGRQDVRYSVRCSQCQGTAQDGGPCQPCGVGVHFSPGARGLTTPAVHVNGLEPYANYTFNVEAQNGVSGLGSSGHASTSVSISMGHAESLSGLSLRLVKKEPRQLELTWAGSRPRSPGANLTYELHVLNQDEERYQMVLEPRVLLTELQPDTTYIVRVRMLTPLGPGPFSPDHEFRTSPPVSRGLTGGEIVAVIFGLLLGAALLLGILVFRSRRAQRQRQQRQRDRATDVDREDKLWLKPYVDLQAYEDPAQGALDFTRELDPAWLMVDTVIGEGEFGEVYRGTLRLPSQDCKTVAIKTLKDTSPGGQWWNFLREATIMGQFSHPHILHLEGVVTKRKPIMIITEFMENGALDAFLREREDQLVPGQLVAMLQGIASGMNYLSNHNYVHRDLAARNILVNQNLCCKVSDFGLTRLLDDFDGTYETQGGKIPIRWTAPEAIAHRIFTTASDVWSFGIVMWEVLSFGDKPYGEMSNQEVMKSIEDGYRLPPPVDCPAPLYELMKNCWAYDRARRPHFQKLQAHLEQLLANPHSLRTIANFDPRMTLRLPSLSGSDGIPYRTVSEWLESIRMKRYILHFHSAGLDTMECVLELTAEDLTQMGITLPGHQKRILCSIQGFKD

A further test addresses T2, EphB2(h) (Homo sapiens, UniProt P29323).
T2 sequence (P29323 19-1055): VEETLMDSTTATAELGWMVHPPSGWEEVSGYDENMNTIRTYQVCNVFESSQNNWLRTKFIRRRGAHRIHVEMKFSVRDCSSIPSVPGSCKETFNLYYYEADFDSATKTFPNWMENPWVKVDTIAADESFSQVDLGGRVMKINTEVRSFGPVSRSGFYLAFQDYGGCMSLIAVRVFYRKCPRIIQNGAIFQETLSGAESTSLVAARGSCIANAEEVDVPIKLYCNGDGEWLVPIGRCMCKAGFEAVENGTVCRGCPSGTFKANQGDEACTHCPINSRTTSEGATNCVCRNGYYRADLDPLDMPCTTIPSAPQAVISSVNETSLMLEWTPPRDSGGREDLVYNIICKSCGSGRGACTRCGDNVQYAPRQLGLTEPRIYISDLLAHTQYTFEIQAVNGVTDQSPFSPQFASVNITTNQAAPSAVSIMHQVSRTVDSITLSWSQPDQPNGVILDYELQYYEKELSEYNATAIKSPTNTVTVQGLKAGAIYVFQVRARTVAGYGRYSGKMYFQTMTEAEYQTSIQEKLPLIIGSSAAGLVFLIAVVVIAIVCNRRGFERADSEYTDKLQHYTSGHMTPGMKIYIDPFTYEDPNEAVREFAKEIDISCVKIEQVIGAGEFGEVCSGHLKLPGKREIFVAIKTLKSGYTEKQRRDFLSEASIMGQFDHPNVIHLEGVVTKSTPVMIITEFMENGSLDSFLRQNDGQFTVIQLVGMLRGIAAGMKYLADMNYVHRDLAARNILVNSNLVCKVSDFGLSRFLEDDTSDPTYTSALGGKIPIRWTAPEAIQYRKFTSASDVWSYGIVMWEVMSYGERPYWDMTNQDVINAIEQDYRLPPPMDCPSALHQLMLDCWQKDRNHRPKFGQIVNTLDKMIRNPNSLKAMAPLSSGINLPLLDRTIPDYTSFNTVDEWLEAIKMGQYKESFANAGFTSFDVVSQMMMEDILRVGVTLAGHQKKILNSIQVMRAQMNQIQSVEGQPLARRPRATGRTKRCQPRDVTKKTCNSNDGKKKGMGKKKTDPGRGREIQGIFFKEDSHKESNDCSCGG

The next test has as its target Hck(h) activated (Homo sapiens, UniProt P08631).
For another test, the target named is T3, NEK2(h) (Homo sapiens, UniProt P51955).
T3 sequence (P51955 1-445): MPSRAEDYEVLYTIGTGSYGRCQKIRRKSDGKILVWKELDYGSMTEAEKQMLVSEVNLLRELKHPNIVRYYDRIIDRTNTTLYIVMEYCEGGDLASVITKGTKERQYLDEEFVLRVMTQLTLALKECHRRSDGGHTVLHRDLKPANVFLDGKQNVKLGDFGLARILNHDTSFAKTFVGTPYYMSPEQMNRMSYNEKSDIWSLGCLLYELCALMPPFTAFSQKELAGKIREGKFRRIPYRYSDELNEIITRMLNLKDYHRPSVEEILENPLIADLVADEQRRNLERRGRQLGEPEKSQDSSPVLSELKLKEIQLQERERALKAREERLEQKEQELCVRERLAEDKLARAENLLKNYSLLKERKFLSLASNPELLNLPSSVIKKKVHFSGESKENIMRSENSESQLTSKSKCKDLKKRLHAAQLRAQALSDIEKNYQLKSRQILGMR

Another test concerns the target T4, SAPK4(h) (Homo sapiens, UniProt O15264).
T4 sequence (O15264 1-365): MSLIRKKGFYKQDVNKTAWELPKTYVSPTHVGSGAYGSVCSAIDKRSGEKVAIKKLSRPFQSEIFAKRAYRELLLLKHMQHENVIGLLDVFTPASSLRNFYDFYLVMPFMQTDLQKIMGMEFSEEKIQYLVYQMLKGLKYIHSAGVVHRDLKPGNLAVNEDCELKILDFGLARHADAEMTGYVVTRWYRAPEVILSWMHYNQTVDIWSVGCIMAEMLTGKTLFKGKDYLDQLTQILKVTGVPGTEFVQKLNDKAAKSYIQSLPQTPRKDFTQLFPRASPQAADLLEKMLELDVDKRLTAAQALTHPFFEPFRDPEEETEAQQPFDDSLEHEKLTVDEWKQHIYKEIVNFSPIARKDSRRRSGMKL

Hck(h) activated, sequence (P08631 whole entry): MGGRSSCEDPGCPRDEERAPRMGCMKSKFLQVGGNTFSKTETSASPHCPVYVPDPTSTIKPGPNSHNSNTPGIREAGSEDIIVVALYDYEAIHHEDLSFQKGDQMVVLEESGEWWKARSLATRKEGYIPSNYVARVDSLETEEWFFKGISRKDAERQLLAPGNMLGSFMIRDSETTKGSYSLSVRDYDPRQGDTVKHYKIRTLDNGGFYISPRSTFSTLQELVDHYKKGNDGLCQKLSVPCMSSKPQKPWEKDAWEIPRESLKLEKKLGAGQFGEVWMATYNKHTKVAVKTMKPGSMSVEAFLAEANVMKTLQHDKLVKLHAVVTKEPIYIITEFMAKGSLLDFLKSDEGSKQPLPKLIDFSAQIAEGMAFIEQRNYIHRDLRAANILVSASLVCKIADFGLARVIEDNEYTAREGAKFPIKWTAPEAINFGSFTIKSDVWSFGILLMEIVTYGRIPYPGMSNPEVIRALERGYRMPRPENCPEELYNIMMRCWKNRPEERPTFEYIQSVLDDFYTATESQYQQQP
CDK6/cyclinD3(h), sequence (Q00534 whole entry): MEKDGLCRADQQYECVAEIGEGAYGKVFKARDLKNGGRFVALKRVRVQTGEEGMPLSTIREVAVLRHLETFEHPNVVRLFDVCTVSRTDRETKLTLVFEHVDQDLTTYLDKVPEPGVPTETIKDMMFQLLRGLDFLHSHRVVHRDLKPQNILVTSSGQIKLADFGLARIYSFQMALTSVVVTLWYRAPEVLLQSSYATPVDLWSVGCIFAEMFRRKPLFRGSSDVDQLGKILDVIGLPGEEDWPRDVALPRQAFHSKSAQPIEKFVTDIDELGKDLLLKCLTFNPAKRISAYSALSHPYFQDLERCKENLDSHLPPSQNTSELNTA
CDK6/cyclinD3(h), sequence (P30281 whole entry partner): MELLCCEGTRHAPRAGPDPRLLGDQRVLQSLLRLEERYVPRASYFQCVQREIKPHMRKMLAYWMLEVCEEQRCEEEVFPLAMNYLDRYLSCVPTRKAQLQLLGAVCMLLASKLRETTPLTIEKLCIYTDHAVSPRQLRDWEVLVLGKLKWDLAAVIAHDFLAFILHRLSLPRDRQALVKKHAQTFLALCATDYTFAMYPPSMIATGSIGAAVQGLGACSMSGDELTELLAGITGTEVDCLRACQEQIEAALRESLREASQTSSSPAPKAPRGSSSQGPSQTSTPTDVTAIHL

As for FAKLAARLYRKALARQLGVAA [MMI-0300], the “% activity” value in the test with CDK6/cyclinD3(h) is 86%; with EphA1(h) it was 73%; with EphB2(h) it was 18%; with Hck(h) activated, 82%; with NEK2(h) it was 78%; in the test with SAPK4(h), 96%.
For YARAAARQARAKALNRQLGVA [MMI-0200], the “% activity” value was determined as 100% with CDK6/cyclinD3(h), 128% with EphB2(h), 100% with Hck(h) activated and 97% with NEK2(h).
As to KAFAKLAARLYRKALARQLGVAA [MMI-0400], the “% activity” value with CDK6/cyclinD3(h) was 85%; with EphA1(h), 61%; in the test with EphB2(h) it was 22%; with Hck(h) activated, 81%; with NEK2(h), 61%; with SAPK4(h), 91%.
Turning to HRRIKAWLKKIKALARQLGVAA [MMI-0500], the “% activity” value is recorded as 23% in the test with CDK6/cyclinD3(h); 40% with EphA1(h); 70% with EphB2(h); 67% with Hck(h) activated; 0% with NEK2(h); 48% with SAPK4(h).

(Values after patent US20190134153A1, “IMMUNOMODULATORY EFFECT OF INHALED KINASE INHIBITOR PEPTIDES IN LUNG” (MOERAE MATRIX, INC., priority 2017, published 2019).)
